{"source": "paper PMC3923860", "key": {"[1]": {"tested_on": "oxidized HMGB1 (Cys23-Cys45 disulfide) (rat (sequence identical to human))", "experiment": "ligase-mediated circularization", "details": "bending, EMSA: 50 mM NaCl, 25 mM Tris-HCl pH 7.5, 1 mM EDTA, 1 mM DTT, 100 ug/ml acetylated BSA, 3% glycerol, 30 min on ice, gels 0.5x TBE, 4 C"}, "histone H1o (H1) (human)": {"tested_on": "histone H1o (H1) (human)", "experiment": "EMSA", "details": "no competitor DNA, EMSA: 50 mM NaCl, 25 mM Tris-HCl pH 7.5, 1 mM EDTA, 1 mM DTT, 100 ug/ml acetylated BSA, 3% glycerol, 30 min on ice"}, "[2]": {"tested_on": "oxidized HMGB1 (Cys23-Cys45 disulfide) (rat (sequence identical to human))", "experiment": "EMSA", "details": "EMSA: 50 mM NaCl, 25 mM Tris-HCl pH 7.5, 1 mM EDTA, 1 mM DTT, 100 ug/ml acetylated BSA, 3% glycerol, 30 min on ice"}, "[3]": {"tested_on": "reduced HMGB1 (all-thiol) (rat (sequence identical to human))", "experiment": "EMSA", "details": "EMSA: 50 mM NaCl, 25 mM Tris-HCl pH 7.5, 1 mM EDTA, 1 mM DTT, 100 ug/ml acetylated BSA, 3% glycerol, 30 min on ice"}, "[4]": {"details": "covalently closed circle, gels 0.5x TBE …"}}, "note": "pKd: −log10 of the molar value."}
{"substance": "123-bp DNA duplex", "values": [{"measurement": "binding signal (% of minicircles with reduced HMGB1)", "setting": "[1]", "value": "< 20"}]}
{"substance": "66-bp DNA minicircle", "values": [{"measurement": "pKd", "setting": "histone H1o (H1) (human); [4]", "value": 8.30}, {"measurement": "pKd", "setting": "[2]; oxidized, covalently closed circle, gels 0.5x TBE …", "value": 9.60}, {"measurement": "pKd", "setting": "[3]; [4]", "value": "> 10.00"}]}
{"substance": "hemicatenated DNA loops (hcDNA)", "values": [{"measurement": "pKd", "setting": "histone H1o (H1) (human); gels 0.5x TBE, 4 C", "value": 8.22}, {"measurement": "pKd", "setting": "[2]; gels 0.5x TBE, 4 C", "value": "> 11.00"}, {"measurement": "binding signal (fold lower affinity than reduced (up to))", "setting": "[2]; oxidized, gels 0.5x TBE, 4 C", "value": 10}, {"measurement": "pKd", "setting": "[3]; gels 0.5x TBE, 4 C", "value": "> 11.00"}]}
